Test results taken from patent publication US20240018252A1 (Pfizer, published 2024).
Substitutions are numbered along the chain they refer to.

T1: human BCMA (human, UniProt Q02223 1-54)
T1 construct: also called huBCMA; hBCMA
T1 sequence: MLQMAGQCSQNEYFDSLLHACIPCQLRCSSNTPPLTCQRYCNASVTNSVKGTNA

B1: L3.PY/H2.DY (antibody, V domains shown)
VH: EVQLLESGGGLVQPGGSLRLSCAASGFTFGSYAMTWVRQAPGKGLEWVSAIDYSGGNTFYADSVKGRFTISRDNSKNTLYLQMNSLRAEDTAVYYCARVSPIASGMDYWGQGTLVTVSS
VL: EIVLTQSPGTLSLSPGERATLSCRASQSVSSSYLAWYQQKPGQAPRLLIYGASSRATGIPDRFSGSGSGTDFTLTISRLEPEDFAVYYCQHYPYPPSFTFGQGTKVEIK
notes: IgG in the assay
B2: L3.PY/L3.KY/H2.QR (antibody, V domains shown)
VH: B1 VH with D52S, Y53G, S63Q, V64R
VL: B1 VL with Q90K, H91Y
notes: IgG in the assay
B3: L3.PY/L1.AH/H2.HA (antibody, V domains shown)
VH: B1 VH with D52S, Y53H, S54A
VL: B1 VL with S31A, S32H
notes: IgG in the assay
B4: L3.PY/L1.FF/H2.QR (antibody, V domains shown)
VH: B1 VH with D52S, Y53G, S63Q, V64R
VL: B1 VL with S32F, Y33F
notes: IgG in the assay
B5: L3.PY/L1.FF/H3.AE (antibody, V domains shown)
VH: B1 VH with D52S, Y53G, S104A, G105E
VL: B1 VL with S32F, Y33F
notes: IgG in the assay
B6: L3.PY/L3.KF/H3.YA (antibody, V domains shown)
VH: B1 VH with D52S, Y53G, A103Y, S104A
VL: B1 VL with Q90K, H91F
notes: IgG in the assay
B7: L3.PY/L3.KY/H3.TAQ (antibody, V domains shown)
VH: B1 VH with D52S, Y53G, A97T, S104A, G105Q
VL: B1 VL with Q90K, H91Y
notes: IgG in the assay
B8: L3.PY/L1.FF/H3.TAQ (antibody, V domains shown)
VH: B1 VH with D52S, Y53G, A97T, S104A, G105Q
VL: B1 VL with S32F, Y33F
notes: IgG in the assay
B9: L3.PY/L1.PH/H2.HA (antibody, V domains shown)
VH: B1 VH with D52S, Y53H, S54A
VL: B1 VL with S31P, S32H
notes: IgG in the assay
B10: L3.PY/L1.FF/H2.DY (antibody, V domains shown)
VH: B1 VH
VL: B1 VL with S32F, Y33F
notes: IgG in the assay
B11: L3.PY/L1.FF/H2.YQ (antibody, V domains shown)
VH: B1 VH with D52S, S54Q
VL: B1 VL with S32F, Y33F
notes: IgG in the assay
B12: L3.PY/L3.KF/H2.QL (antibody, V domains shown)
VH: B1 VH with D52S, Y53G, S63Q, V64L
VL: B1 VL with Q90K, H91F
notes: IgG in the assay
B13: L3.PY/L1.AH/H3.TAQ (antibody, V domains shown)
VH: B1 VH with D52S, Y53G, A97T, S104A, G105Q
VL: B1 VL with S31A, S32H
notes: IgG in the assay
B14: L3.PY/H3.YA (antibody, V domains shown)
VH: B1 VH with D52S, Y53G, A103Y, S104A
VL: B1 VL
notes: IgG in the assay
B15: L3.PY/H3.AE (antibody, V domains shown)
VH: B1 VH with D52S, Y53G, S104A, G105E
VL: B1 VL
notes: IgG in the assay
B16: L3.PY/L1.FF/H2.LT (antibody, V domains shown)
VH: B1 VH with D52S, Y53L, S54T
VL: B1 VL with S32F, Y33F
notes: IgG in the assay
B17: L3.PY/H2.YQ (antibody, V domains shown)
VH: B1 VH with D52S, S54Q
VL: B1 VL
notes: IgG in the assay
B18: L3.PY/L1.AH/H2.DY (antibody, V domains shown)
VH: B1 VH
VL: B1 VL with S31A, S32H
notes: IgG in the assay
B19: L3.PY/L3.KF/H2.LT (antibody, V domains shown)
VH: B1 VH with D52S, Y53L, S54T
VL: B1 VL with Q90K, H91F
notes: IgG in the assay
B20: L3.PY/L1.FF/H3.YA (antibody, V domains shown)
VH: B1 VH with D52S, Y53G, A103Y, S104A
VL: B1 VL with S32F, Y33F
notes: IgG in the assay
B21: L3.PY/L1.FF/H2.QL (antibody, V domains shown)
VH: B1 VH with D52S, Y53G, S63Q, V64L
VL: B1 VL with S32F, Y33F
notes: IgG in the assay
B22: L3.PY/H2.QR (antibody, V domains shown)
VH: B1 VH with D52S, Y53G, S63Q, V64R
VL: B1 VL
notes: IgG in the assay
B23: L3.PY/H2.QL (antibody, V domains shown)
VH: B1 VH with D52S, Y53G, S63Q, V64L
VL: B1 VL
notes: IgG in the assay
B24: L3.PY/L3.KF/H2.YQ (antibody, V domains shown)
VH: B1 VH with D52S, S54Q
VL: B1 VL with Q90K, H91F
notes: IgG in the assay
B25: L3.PY/H3.TAQ (antibody, V domains shown)
VH: B1 VH with D52S, Y53G, A97T, S104A, G105Q
VL: B1 VL
notes: IgG in the assay; also called P6E01 L3PY/H3TAQ
B26: L3.PY/H2.LT (antibody, V domains shown)
VH: B1 VH with D52S, Y53L, S54T
VL: B1 VL
notes: IgG in the assay
B27: L3.PY/L1.AH/H2.LT (antibody, V domains shown)
VH: B1 VH with D52S, Y53L, S54T
VL: B1 VL with S31A, S32H
notes: IgG in the assay
B28: L3.PY/L3.KY/H3.YA (antibody, V domains shown)
VH: B1 VH with D52S, Y53G, A103Y, S104A
VL: B1 VL with Q90K, H91Y
notes: IgG in the assay
B29: L3.PY/L3.KY/H2.QL (antibody, V domains shown)
VH: B1 VH with D52S, Y53G, S63Q, V64L
VL: B1 VL with Q90K, H91Y
notes: IgG in the assay
B30: L3.PY/H2.HA (antibody, V domains shown)
VH: B1 VH with D52S, Y53H, S54A
VL: B1 VL
notes: IgG in the assay
B31: L3.PY/L1.PH/H3.AQ (antibody, V domains shown)
VH: B1 VH with D52S, Y53G, S104A, G105Q
VL: B1 VL with S31P, S32H
notes: IgG in the assay
B32: L3.PY/L3.KY/H2.HA (antibody, V domains shown)
VH: B1 VH with D52S, Y53H, S54A
VL: B1 VL with Q90K, H91Y
notes: IgG in the assay
B33: L3.PY/L3.KY/H2.YQ (antibody, V domains shown)
VH: B1 VH with D52S, S54Q
VL: B1 VL with Q90K, H91Y
notes: IgG in the assay
B34: L3.PY/L3.KF/H3.AQ (antibody, V domains shown)
VH: B1 VH with D52S, Y53G, S104A, G105Q
VL: B1 VL with Q90K, H91F
notes: IgG in the assay
B35: L3.PY/L3.KY/H2.LT (antibody, V domains shown)
VH: B1 VH with D52S, Y53L, S54T
VL: B1 VL with Q90K, H91Y
notes: IgG in the assay
B36: L3.PY/L1.PH/H3.AE (antibody, V domains shown)
VH: B1 VH with D52S, Y53G, S104A, G105E
VL: B1 VL with S31P, S32H
notes: IgG in the assay
B37: L3.PY/L3.KF/H2.DY (antibody, V domains shown)
VH: B1 VH
VL: B1 VL with Q90K, H91F
notes: IgG in the assay
B38: L3.PY/L1.PH/H2.QR (antibody, V domains shown)
VH: B1 VH with D52S, Y53G, S63Q, V64R
VL: B1 VL with S31P, S32H
notes: IgG in the assay
B39: L3.PY/L1.FF/H3.AQ (antibody, V domains shown)
VH: B1 VH with D52S, Y53G, S104A, G105Q
VL: B1 VL with S32F, Y33F
notes: IgG in the assay
B40: L3.PY/H3.AQ (antibody, V domains shown)
VH: B1 VH with D52S, Y53G, S104A, G105Q
VL: B1 VL
notes: IgG in the assay
B41: L3.PY/L1.PH/H3.TAQ (antibody, V domains shown)
VH: B1 VH with D52S, Y53G, A97T, S104A, G105Q
VL: B1 VL with S31P, S32H
notes: IgG in the assay
B42: L3.PY/L3.KF/H3.AE (antibody, V domains shown)
VH: B1 VH with D52S, Y53G, S104A, G105E
VL: B1 VL with Q90K, H91F
notes: IgG in the assay
B43: L3.PY/L3.KF/H3.TAQ (antibody, V domains shown)
VH: B1 VH with D52S, Y53G, A97T, S104A, G105Q
VL: B1 VL with Q90K, H91F
notes: IgG in the assay
B44: L3.PY/L3.KY/H2.DY (antibody, V domains shown)
VH: B1 VH
VL: B1 VL with Q90K, H91Y
notes: IgG in the assay
B45: L3.PY/L1.AH/H2.QL (antibody, V domains shown)
VH: B1 VH with D52S, Y53G, S63Q, V64L
VL: B1 VL with S31A, S32H
notes: IgG in the assay
B46: L3.PY/L1.FF/H2.HA (antibody, V domains shown)
VH: B1 VH with D52S, Y53H, S54A
VL: B1 VL with S32F, Y33F
notes: IgG in the assay

target: T1, human BCMA; test: SPR, immobilised IgG, 37° C

B1 and B2 are within 1.5-fold of each other in “T½” value: 8.37 min for the first, 11.7 min for the second.

B3 and B4 are within 1.5-fold of each other in “T½” value: 6.37 min for the first, 6.54 min for the second.

Going from B5 to B6, the “T½” value rises from 4.39 min to 7.85 min (1.8-fold).

First: B7
Second: B8
The “T½” value of the first is 2.9-fold higher: 17.8 min for the first, 6.12 min for the second.

First: B9
Second: B10
The “T½” value of the first is 2.3-fold higher: 9.99 min for the first, 4.27 min for the second.

B11 and B12 are within 1.5-fold of each other in “T½” value: 7.61 min for the first, 9.26 min for the second.

B13 and B14 are within 1.5-fold of each other in “T½” value: 9.68 min for the first, 9.82 min for the second.

B15 and B16 are within 1.5-fold of each other in “T½” value: 8.32 min for the first, 6.92 min for the second.

B17 and B18 are within 1.5-fold of each other in “T½” value: 7.41 min for the first, 7.62 min for the second.

B19 and B20 are within 1.5-fold of each other in “T½” value: 6.05 min for the first, 6.41 min for the second.

B21 and B22 are within 1.5-fold of each other in “T½” value: 8.28 min for the first, 9.75 min for the second.

B23 and B24 are within 1.5-fold of each other in “T½” value: 5.31 min for the first, 5.18 min for the second.

B25 and B26 are within 1.5-fold of each other in “T½” value: 10.1 min for the first, 8.95 min for the second.

B27 and B28 are within 1.5-fold of each other in “T½” value: 9.38 min for the first, 12.7 min for the second.

B29 and B30 are within 1.5-fold of each other in “T½” value: 5.56 min for the first, 7.89 min for the second.

B31 and B32 are within 1.5-fold of each other in “T½” value: 7.27 min for the first, 7.1 min for the second.

B33 and B34 are within 1.5-fold of each other in “T½” value: 7.02 min for the first, 5.09 min for the second.

B35 and B36 are within 1.5-fold of each other in “T½” value: 12.8 min for the first, 8.61 min for the second.

B37 and B38 are within 1.5-fold of each other in “T½” value: 6.35 min for the first, 4.89 min for the second.

B39 and B40 are within 1.5-fold of each other in “T½” value: 7.51 min for the first, 6.69 min for the second.

B41 and B42 are within 1.5-fold of each other in “T½” value: 5.43 min for the first, 7.44 min for the second.

First: B43
Second: B44
The “T½” value of the first is 2.5-fold lower: 7.12 min for the first, 18 min for the second.

B45 and B46 are within 1.5-fold of each other in “T½” value: 7.22 min for the first, 5.29 min for the second.

target: T2, cyBCMA (cynomolgus, UniProt A0A2K5UD97 1-53); test: SPR, immobilised IgG, 37° C
T2 construct: Soluble analyte in SPR; construct not described; also called cyno BCMA
T2 sequence (A0A2K5UD97 entry or part of it): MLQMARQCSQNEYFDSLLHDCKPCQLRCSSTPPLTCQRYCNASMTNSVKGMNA

B1 and B3 are within 1.5-fold of each other in “T½” value: 1.87 min for the first, 2.63 min for the second.

B14 and B15 are within 1.5-fold of each other in “T½” value: 2.14 min for the first, 2.29 min for the second.

B17 and B18 are within 1.5-fold of each other in “T½” value: 1.86 min for the first, 2.56 min for the second.

Going from B22 to B23, the “T½” value falls from 1.76 min to 0.91 min (1.9-fold).

Going from B25 to B26, the “T½” value falls from 2.64 min to 1.53 min (1.7-fold).

Going from B27 to B30, the “T½” value falls from 3.91 min to 1.53 min (2.6-fold).

Going from B40 to B45, the “T½” value falls from 2.14 min to 1.21 min (1.8-fold).
